Results: FireProtDB (doi:10.1021/bi972395d)
Several values for one entry are separate records, joined by “and”; a condition that tells them apart may be missing. Equal entries are not always repeated.

B1: Superoxide dismutase [Mn], mitochondrial, P04179 (parent)
chain: MLSRAVCGTSRQLAPVLGYLGSRQKHSLPDLPYDYGALEPHINAQIMQLHHSKHHAAYVNNLNVTEEKYQEALAKGDVTAQIALQPALKFNGGGHINHSIFWTNLSPNGGGEPKGELLEAIKRDFGSFDKFKEKLTAASVGVQGSGWGWLGFNKERGHLQIAACPNQDPLQGTTGLIPLLGIDVWEHAYYLQYKNVRPDYLKAIWNVINWENVTERYMACKK

Variants of: B1
Conditions: Homo sapiens; pH 7.8; 70 °C; Thermal; DSC; potassium phosphate 2 mM; transition: 2; reversible: Yes; structure 1N0J; whole UniProt chain shown

Variant | ddG of mutation (higher = less stable) [kcal/mol]
MLSRAVCGTSRQLAPVLGYLGSRQKHSLPDLPYDYGALEPHINAQIMQLHHSKHHAAYVNNLNVTEEKYQEALAKGDVTAQIALQPALKFNGGGHINHSIFWTNLSPNGGGEPKGELLEAIKRDFGSFDKFKEKLTAASVGVQGSGWGWLGFNKERGHLQIAACPNNDPLQGTTGLIPLLGIDVWEHAYYLQYKNVRPDYLKAIWNVINWENVTERYMACKK [Q167N] | -2.79

Same assay, conditions: Homo sapiens; pH 7.8; 88.9 °C; Thermal; DSC; potassium phosphate 2 mM; transition: 2; reversible: Yes; structure 1N0J; whole UniProt chain shown

Variant | ddG of mutation (higher = less stable) [kcal/mol]
MLSRAVCGTSRQLAPVLGYLGSRQKHSLPDLPYDYGALEPHINAQIMQLHHSKHHAAYVNNLNVTEEKYQEALAKGDVTAQIALQPALKFNGGGHINHSIFWTNLSPNGGGEPKGELLEAIKRDFGSFDKFKEKLTAASVGVQGSGWGWLGFNKERGHLQIAACPNNDPLQGTTGLIPLLGIDVWEHAYYLQYKNVRPDYLKAIWNVINWENVTERYMACKK [Q167N] | -0.06

Same assay, conditions: Homo sapiens; pH 7.8; Thermal; DSC; potassium phosphate 2 mM; transition: 2; reversible: Yes; structure 1N0J; whole UniProt chain shown

Variant | unfolding enthalpy (calorimetric)
MLSRAVCGTSRQLAPVLGYLGSRQKHSLPDLPYDYGALEPHINAQIMQLHHSKHHAAYVNNLNVTEEKYQEALAKGDVTAQIALQPALKFNGGGHINHSIFWTNLSPNGGGEPKGELLEAIKRDFGSFDKFKEKLTAASVGVQGSGWGWLGFNKERGHLQIAACPNNDPLQGTTGLIPLLGIDVWEHAYYLQYKNVRPDYLKAIWNVINWENVTERYMACKK [Q167N] | 100 kcal/mol and 78.3 kcal/mol
